B1: S. cerevisiae Fdc1 (Saccharomyces cerevisiae S288C) (protein)
chain: MRKLNPALEFRDFIQVLKDEDDLIEITEEIDPNLEVGAIMRKAYESHLPAPLFKNLKGASKDLFSILGCPAGLRSKEKGDHGRIAHHLGLDPKTTIKEIIDYLLECKEKEPLPPITVPVSSAPCKTHILSEEKIHLQSLPTPYLHVSDGGKYLQTYGMWILQTPDKKWTNWSIARGMVVDDKHITGLVIKPQHIRQIADSWAAIGKANEIPFALCFGVPPAAILVSSMPIPEGVSESDYVGAILGESVPVVKCETNDLMVPATSEMVFEGTLSLTDTHLEGPFGEMHGYVFKSQGHPCPLYTVKAMSYRDNAILPVSNPGLCTDETHTLIGSLVATEAKELAIESGLPILDAFMPYEAQALWLILKVDLKGLQALKTTPEEFCKKVGDIYFRTKVGFIVHEIILVADDIDIFNFKEVIWAYVTRHTPVADQMAFDDVTSFPLAPFVSQSSRSKTMKGGKCVTNCIFRQQYERSFDYITCNFEKGYPKGLVDKVNENWKRYGYK
B2: S. cerevisiae Fdc1 (Saccharomyces cerevisiae S288C; E280D) (protein)
chain: MRKLNPALEFRDFIQVLKDEDDLIEITEEIDPNLEVGAIMRKAYESHLPAPLFKNLKGASKDLFSILGCPAGLRSKEKGDHGRIAHHLGLDPKTTIKEIIDYLLECKEKEPLPPITVPVSSAPCKTHILSEEKIHLQSLPTPYLHVSDGGKYLQTYGMWILQTPDKKWTNWSIARGMVVDDKHITGLVIKPQHIRQIADSWAAIGKANEIPFALCFGVPPAAILVSSMPIPEGVSESDYVGAILGESVPVVKCETNDLMVPATSEMVFEGTLSLTDTHLDGPFGEMHGYVFKSQGHPCPLYTVKAMSYRDNAILPVSNPGLCTDETHTLIGSLVATEAKELAIESGLPILDAFMPYEAQALWLILKVDLKGLQALKTTPEEFCKKVGDIYFRTKVGFIVHEIILVADDIDIFNFKEVIWAYVTRHTPVADQMAFDDVTSFPLAPFVSQSSRSKTMKGGKCVTNCIFRQQYERSFDYITCNFEKGYPKGLVDKVNENWKRYGYK
B3: S. cerevisiae Fdc1 (Saccharomyces cerevisiae S288C; E285D) (protein)
chain: MRKLNPALEFRDFIQVLKDEDDLIEITEEIDPNLEVGAIMRKAYESHLPAPLFKNLKGASKDLFSILGCPAGLRSKEKGDHGRIAHHLGLDPKTTIKEIIDYLLECKEKEPLPPITVPVSSAPCKTHILSEEKIHLQSLPTPYLHVSDGGKYLQTYGMWILQTPDKKWTNWSIARGMVVDDKHITGLVIKPQHIRQIADSWAAIGKANEIPFALCFGVPPAAILVSSMPIPEGVSESDYVGAILGESVPVVKCETNDLMVPATSEMVFEGTLSLTDTHLEGPFGDMHGYVFKSQGHPCPLYTVKAMSYRDNAILPVSNPGLCTDETHTLIGSLVATEAKELAIESGLPILDAFMPYEAQALWLILKVDLKGLQALKTTPEEFCKKVGDIYFRTKVGFIVHEIILVADDIDIFNFKEVIWAYVTRHTPVADQMAFDDVTSFPLAPFVSQSSRSKTMKGGKCVTNCIFRQQYERSFDYITCNFEKGYPKGLVDKVNENWKRYGYK

Legend:
A. niger Fdc1 = A. niger Fdc1 (Aspergillus niger, UniProt A2QHE5); settings: purified and crystallized in the dark
O=C(O)/C=C/c1ccccc1 = assay: purified protein; settings: 50 mM KCl, 50 mM NaPi, pH 6, 25 °C, prFMN holo-enzyme
purified protein = substrate: O=C(O)/C=C/c1ccccc1; assay: purified protein; settings: 50 mM KCl, 50 mM NaPi, pH 6, 25 °C, prFMN holo-enzyme; remark: listed apart in the source

Molecule | crystal structure (A. niger Fdc1) | Km (O=C(O)/C=C/c1ccccc1) | kcat (O=C(O)/C=C/c1ccccc1) | Km (purified protein) | kcat (purified protein)
Cc1cc2c3c(c1C)C(C)(C)CC=[N+]3c1c(nc([O-])[nH]c1=O)N2C[C@H](O)[C@H](O)[C@H](O)COP(=O)(O)O [prFMN^iminium] | the prFMN cofactor is exclusively in the iminium form | – | – | – | –
A. niger Fdc1 (Aspergillus niger CBS 513.88) | – | 10.0 ± 0.6 µM | 9.4 ± 0.1 s⁻¹ | – | –
A. niger Fdc1 (Aspergillus niger CBS 513.88; E282D) | – | 50 ± 10 µM | 0.63 ± 0.04 s⁻¹ | – | –
B1 | – | – | – | 25.5 ± 3.6 µM | 10.5 ± 0.4 s⁻¹
B2 | – | – | – | 8.6 ± 1.5 µM | 0.92 ± 0.03 s⁻¹
B3 | – | – | – | 20.4 ± 3.6 µM | 0.28 ± 0.01 s⁻¹

Source: article PMC5818171, “The role of conserved residues in Fdc decarboxylase in prenylated flavin mononucleotide oxidative maturation, cofactor isomerization, and catalysis” (The Journal of Biological Chemistry, 2017)
